The source of these data is publication PMC5397160, “Insights into the RecQ helicase mechanism revealed by the structure of the helicase domain of human RECQL5”.

For one data set, the target named is RECQL5 11-453 (human, UniProt O94762 11-453). The experiment in a line: fluorescence polarization; FP: 10 mM HEPES pH 7.5, 150 mM NaCl, 25 C, 10 nM FITC probe; no nucleotide or Mg stated. Conditions: protein: recombinant; tags: none (His tag cleaved with TEV); label: 5' fluorescein (FITC) on RQ-1; fork 1:2, 31 bp, RQ-1 5' arm 32 nt, RQ-3 3' arm 30 nt. On the technique in general: Polarisation of emitted light reports the rotation of a fluorescent probe.

In the next data set the target is RECQL5 11-609 (human, UniProt O94762 11-609). The description is as above. Conditions: protein: recombinant, tags: none (His tag cleaved with TEV).
For another data set, the target named is RECQL5 11-526 W165A (human, UniProt O94762 11-526, W165A). Described as above. The settings on record: protein: recombinant; tags: none (His tag cleaved with TEV); label: 5' fluorescein (FITC) on RQ-1; fork 1:2, 31 bp, RQ-1 5' arm 32 nt, RQ-3 3' arm 30 nt.
Another data set deals with RECQL5 11-526 H167A (human, UniProt O94762 11-526, H167A). Described as above. Conditions: protein: recombinant; tags: none (His tag cleaved with TEV); label: 5' fluorescein (FITC) on RQ-1; fork 1:2, 31 bp, RQ-1 5' arm 32 nt, RQ-3 3' arm 30 nt.
For another data set, the target named is RECQL5 11-526 (human, UniProt O94762 11-526). The data set is described as above. Conditions: protein: recombinant; tags: none (His tag cleaved with TEV); label: 5' fluorescein (FITC) on RQ-1; fork 1:2, 31 bp, RQ-1 5' arm 32 nt, RQ-3 3' arm 30 nt.
The next data set concerns the target RECQL5 11-526 F420A (human, UniProt O94762 11-526, F420A). The description is as above. The settings on record: protein: recombinant; tags: none (His tag cleaved with TEV); label: 5' fluorescein (FITC) on RQ-1; fork 1:2, 31 bp, RQ-1 5' arm 32 nt, RQ-3 3' arm 30 nt.
In another data set the target is RECQL5 11-526 D168A (human, UniProt O94762 11-526, D168A). The data set is described as above. Conditions: protein: recombinant; tags: none (His tag cleaved with TEV); label: 5' fluorescein (FITC) on RQ-1; fork 1:2, 31 bp, RQ-1 5' arm 32 nt, RQ-3 3' arm 30 nt.
The next data set deals with RECQL5 11-526 Y419A (human, UniProt O94762 11-526, Y419A). The data set is described as above. Conditions: protein: recombinant; tags: none (His tag cleaved with TEV); label: 5' fluorescein (FITC) on RQ-1; fork 1:2, 31 bp, RQ-1 5' arm 32 nt, RQ-3 3' arm 30 nt.
Another data set addresses RECQL5 11-526 Q345A (human, UniProt O94762 11-526, Q345A). The data set is described as above. Conditions: protein: recombinant; tags: none (His tag cleaved with TEV); label: 5' fluorescein (FITC) on RQ-1; fork 1:2, 31 bp, RQ-1 5' arm 32 nt, RQ-3 3' arm 30 nt.
The next data set has as its target RECQL5 11-526 R352G (human, UniProt O94762 11-526, R352G). The data set is described as above. Conditions: protein: recombinant; tags: none (His tag cleaved with TEV); label: 5' fluorescein (FITC) on RQ-1; fork 1:2, 31 bp, RQ-1 5' arm 32 nt, RQ-3 3' arm 30 nt.
The next data set concerns the target RECQL5 11-526 D422A (human, UniProt O94762 11-526, D422A). The description is as above. Conditions: protein: recombinant; tags: none (His tag cleaved with TEV); label: 5' fluorescein (FITC) on RQ-1; fork 1:2, 31 bp, RQ-1 5' arm 32 nt, RQ-3 3' arm 30 nt.
In the next data set the target is RECQL5 11-526 R349A (human, UniProt O94762 11-526, R349A). The experiment in a line: fluorescence polarization; value marked * in table; FP: 10 mM HEPES pH 7.5, 150 mM NaCl, 25 C, 10 nM FITC probe; no nucleotide or Mg stated. The settings on record: protein: recombinant; tags: none (His tag cleaved with TEV); label: 5' fluorescein (FITC) on RQ-1; fork 1:2, 31 bp, RQ-1 5' arm 32 nt, RQ-3 3' arm 30 nt.

A further data set concerns the target RECQL5 11-438 (human, UniProt O94762 11-438). The experiment in a line: fluorescence polarization; shared Bmax fit; FP: 10 mM HEPES pH 7.5, 150 mM NaCl, 25 C, 10 nM FITC probe; no nucleotide or Mg stated. The settings on record: protein: recombinant; tags: none (His tag cleaved with TEV); label: 5' fluorescein (FITC) on RQ-1; fork 1:2, 31 bp, RQ-1 5' arm 32 nt, RQ-3 3' arm 30 nt.

RECQL5 11-609, sequence (O94762 11-609): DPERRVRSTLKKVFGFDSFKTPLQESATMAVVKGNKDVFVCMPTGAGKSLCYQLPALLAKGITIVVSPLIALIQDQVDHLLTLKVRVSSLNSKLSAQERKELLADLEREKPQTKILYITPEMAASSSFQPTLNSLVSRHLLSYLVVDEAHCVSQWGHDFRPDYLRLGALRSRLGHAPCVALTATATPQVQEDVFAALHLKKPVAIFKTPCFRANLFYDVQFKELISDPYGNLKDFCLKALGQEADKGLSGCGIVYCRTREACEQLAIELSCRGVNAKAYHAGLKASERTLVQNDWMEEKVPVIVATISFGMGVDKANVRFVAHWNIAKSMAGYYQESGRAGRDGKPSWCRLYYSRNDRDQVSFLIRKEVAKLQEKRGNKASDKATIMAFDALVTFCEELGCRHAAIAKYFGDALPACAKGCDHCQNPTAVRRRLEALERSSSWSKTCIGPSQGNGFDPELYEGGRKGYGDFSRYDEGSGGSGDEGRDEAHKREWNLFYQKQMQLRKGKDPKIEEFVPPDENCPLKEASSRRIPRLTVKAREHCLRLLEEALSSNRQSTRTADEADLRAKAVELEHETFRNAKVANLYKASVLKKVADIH
RECQL5 11-526 Y419A, sequence (O94762 11-526 Y419A): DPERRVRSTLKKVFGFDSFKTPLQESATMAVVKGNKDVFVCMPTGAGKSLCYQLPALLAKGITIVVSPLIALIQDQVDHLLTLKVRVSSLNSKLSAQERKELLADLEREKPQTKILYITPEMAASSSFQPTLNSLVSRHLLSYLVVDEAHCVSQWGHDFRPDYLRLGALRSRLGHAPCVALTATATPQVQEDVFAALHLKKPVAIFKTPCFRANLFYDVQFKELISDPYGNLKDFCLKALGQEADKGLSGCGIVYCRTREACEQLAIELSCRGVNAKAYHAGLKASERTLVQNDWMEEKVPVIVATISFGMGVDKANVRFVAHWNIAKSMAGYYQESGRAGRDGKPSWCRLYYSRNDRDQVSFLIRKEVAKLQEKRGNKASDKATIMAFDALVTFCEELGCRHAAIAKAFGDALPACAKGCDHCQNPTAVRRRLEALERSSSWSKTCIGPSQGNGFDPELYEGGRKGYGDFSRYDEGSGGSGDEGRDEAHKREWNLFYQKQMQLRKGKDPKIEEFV
RECQL5 11-526 D422A, sequence (O94762 11-526 D422A): as the sequence (O94762 11-526 Y419A) above, with A409Y, D412A counted along it
RECQL5 11-526 Q345A, sequence (O94762 11-526 Q345A): as the sequence (O94762 11-526 Y419A) above, with Q335A, A409Y counted along it
RECQL5 11-526 R349A, sequence (O94762 11-526 R349A): as the sequence (O94762 11-526 Y419A) above, with R339A, A409Y counted along it
RECQL5 11-526 F420A, sequence (O94762 11-526 F420A): as the sequence (O94762 11-526 Y419A) above, with A409Y, F410A counted along it
RECQL5 11-526 R352G, sequence (O94762 11-526 R352G): as the sequence (O94762 11-526 Y419A) above, with R342G, A409Y counted along it
RECQL5 11-526 W165A, sequence (O94762 11-526 W165A): as the sequence (O94762 11-526 Y419A) above, with W155A, A409Y counted along it
RECQL5 11-453, sequence (O94762 11-453): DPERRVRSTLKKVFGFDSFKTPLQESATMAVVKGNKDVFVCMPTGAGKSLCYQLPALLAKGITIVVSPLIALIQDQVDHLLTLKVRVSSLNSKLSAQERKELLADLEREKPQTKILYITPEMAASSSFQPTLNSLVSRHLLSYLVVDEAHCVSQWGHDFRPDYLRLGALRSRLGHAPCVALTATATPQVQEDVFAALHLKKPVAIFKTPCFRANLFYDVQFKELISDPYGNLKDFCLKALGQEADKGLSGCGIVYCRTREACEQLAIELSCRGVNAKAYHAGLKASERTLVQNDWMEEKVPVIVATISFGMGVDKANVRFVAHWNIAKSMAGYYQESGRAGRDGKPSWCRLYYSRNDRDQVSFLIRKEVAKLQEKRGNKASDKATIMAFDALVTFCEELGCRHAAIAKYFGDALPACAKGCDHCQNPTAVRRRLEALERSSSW
RECQL5 11-438, sequence (O94762 11-438): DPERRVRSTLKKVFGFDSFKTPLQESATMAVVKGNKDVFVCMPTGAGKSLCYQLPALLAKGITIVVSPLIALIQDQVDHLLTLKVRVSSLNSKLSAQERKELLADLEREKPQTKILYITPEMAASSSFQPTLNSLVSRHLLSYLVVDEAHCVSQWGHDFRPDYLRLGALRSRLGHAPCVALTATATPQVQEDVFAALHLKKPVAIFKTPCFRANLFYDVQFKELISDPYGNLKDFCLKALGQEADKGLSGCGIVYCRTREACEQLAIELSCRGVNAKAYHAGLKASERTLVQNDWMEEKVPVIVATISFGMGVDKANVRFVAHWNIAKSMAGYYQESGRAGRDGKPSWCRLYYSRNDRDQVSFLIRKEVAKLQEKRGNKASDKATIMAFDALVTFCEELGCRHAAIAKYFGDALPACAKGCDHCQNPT
RECQL5 11-526 H167A, sequence (O94762 11-526 H167A): as the sequence (O94762 11-526 Y419A) above, with H157A, A409Y counted along it
RECQL5 11-526 D168A, sequence (O94762 11-526 D168A): as the sequence (O94762 11-526 Y419A) above, with D158A, A409Y counted along it
RECQL5 11-526, sequence (O94762 11-526): as the sequence (O94762 11-526 Y419A) above, with A409Y counted along it

B1: splayed duplex (RQ-1 + RQ-3) (mixed)
DNA 1: ATCGATAGTCGGATCCTCTAGACAGCTCCATGTAGCAAGGCACTGGTAGAATTCGGCAGCGTC
DNA 2: GACGCTGCCGAATTCTACCAGTGCCTTGCTAGGACATCTTTGCCCACCTGCAGGTTCACCC
Consider B1, for which the dissociation constant Kd (in general, the constant that tells how readily two partners part at equilibrium) with RECQL5 11-453 was 49 ± 28 nM; with RECQL5 11-609 (label: 5' fluorescein (FITC) on RQ-1, fork 1:2, 31 bp, RQ-1 5' arm 32 nt, RQ-3 3' arm 30 nt), 29 ± 4 nM; with RECQL5 11-526 W165A, 169 ± 6 nM; with RECQL5 11-526 H167A, 108 ± 5 nM; with RECQL5 11-526, 51 ± 5 nM; in the data set with RECQL5 11-526 F420A, 45 ± 3 nM. In addition, the Kd came out at 25 ± 2 nM with RECQL5 11-526 D168A; 39 ± 10 nM with RECQL5 11-526 Y419A; 85 ± 4 nM in the data set with RECQL5 11-526 Q345A; 29 ± 2 nM with RECQL5 11-526 R352G; 38 ± 4 nM with RECQL5 11-526 D422A; 295 ± 29 nM with RECQL5 11-526 R349A. The Kd in the data set with RECQL5 11-438 was 164 ± 34 nM.

B2: single stranded (RQ-1) (ssDNA)
DNA: B1 DNA 1
On to B2, for which the binding result with RECQL5 11-609 (label: 5' fluorescein (FITC), single strand) is recorded as “binds”.

B3: double stranded (RQ-1 + RQ-2) (dsDNA)
DNA 1: B1 DNA 1
DNA 2: GACGCTGCCGAATTCTACCAGTGCCTTGCTACATGGAGCTGTCTAGAGGATCCGACTATCGAT
For the molecule B3, the binding result with RECQL5 11-609 (label: 5' fluorescein (FITC) on RQ-1, blunt) is on record as “binds”.
